Source: article PMC3058826

Target: H3(1–15)K4 peptide (UniProt P68431)
Test: ITC

Kd: 8.6 µM
Substance: TRIM24 PHD-Bromo (PHD-linker-Bromo segment, residues 824–1006), wild type (from UniProt O15164 824-1006) (domain or fragment)
